According to publication PMC11558822, “Myc 9aaTAD activation domain binds to mediator of transcription with superior high affinity” (Molecular Medicine, 2024):

Tested on: lacZ reporter driven by the lexA operator
Assay: One hybrid transactivation (β-galactosidase reporter) assay with LexA hybrids in yeast strain L40
Type: cell-based, Saccharomyces cerevisiae
Settings: for ß-Gal: raw β-galactosidase activity; for Reporter activation (average value in %): β-galactosidase activity of LexA hybrid, % of positive control p53 construct 6p53 set to 100%, mean ± SD, n = 3; for normalized value in %: β-galactosidase, % of 6p53 mean
[1] = replicate 1 (first sample of the construct)
[2] = replicate 2 (second sample of the construct)
[3] = replicate 3 (third sample of the construct)

Molecule	ß-Gal [1]	ß-Gal [2]	ß-Gal [3]	Reporter activation (average value in %) [%]	normalized value in % [1] [%]	normalized value in % [2] [%]	normalized value in % [3] [%]	activation function (times) (one hybrid assay, presence versus absence of 9aaTAD (region 100–108) in the construct)
c-Myc region 1-103: LexA hybrid construct of c-Myc N-terminal region 1–103 without 9aaTAD (protein, UniProt P01106 1-103, looked up, fragment, LexA fusion, LexA hybrid construct of c-Myc N-terminal region 1–103 without 9aaTAD) MDFFRVVENQQPPATMPLNVSFTNRNYDLDYDSVQPYFYCDEEENFYQQQQQSELQPPAPSEDIWKKFELLPTPPLSPSRRSGLCSPSYVAVTPFSLRGDNDG	25	24	27	9	9	9	10	–
c-Myc region 1-108: LexA hybrid construct of c-Myc N-terminal region 1–108 with 9aaTAD (protein, UniProt P01106 1-108, looked up, fragment, LexA fusion, LexA hybrid construct of c-Myc N-terminal region 1–108 with 9aaTAD) MDFFRVVENQQPPATMPLNVSFTNRNYDLDYDSVQPYFYCDEEENFYQQQQQSELQPPAPSEDIWKKFELLPTPPLSPSRRSGLCSPSYVAVTPFSLRGDNDGGGGSF	136	123	139	49	50	45	51	5
